Experimental findings from US20230374151A1 (GlaxoSmithKline, published 2023) are described below.

To fix the notation:
T1: MUC1 peptide (non-glycosylated), biotinylated (N-terminal Biotin-PEG2; C-terminal amide)
T1 construct: also called 36-4; 7-36-4
T1 peptide: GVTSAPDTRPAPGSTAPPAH

B1: humanised anti-TnMUC1 scFv protein 11P6 (89A), L0-H5 (scFv)
scFv: DIVMTQSPDSLAVSLGERATINCKSSQSLLNSGDQKNYLTWYQQKPGQPPKLLIYWASTRESGVPDRFSGSGSGTDFTLTISSLQAEDVAVYYCQNDYSYPLTFGQGTKLEIKGGGGSGGGGSGGGGSGGGGSQVQLVQSGAEVKKPGSSVKVSCKASGYTFTDHAIHWVRQAPGQGLEWIGHFSPGNTDIKYNDKFKGRATLTVDRSTSTAYMELSSLRSEDTAVYFCKTSTFFFDYWGQGTTVTVSSAAAHHHHHH
notes: Supernatant of construct 6D6 in the Octet assay; purified 11P6 elsewhere; also called 6D6
B2: humanised anti-TnMUC1 scFv protein 13P18 (19A), L2-H5 (scFv)
scFv: B1 scFv with Y55F
notes: Supernatant of construct 6D18 in the Octet assay; purified 13P18 elsewhere. scFv of CAR MB025; also called 6D18
B3: humanised anti-TnMUC1 scFv protein 16P4 (82A), L0-H3 (scFv)
scFv: B1 scFv with I181M, A201V, L203I, V205A, R207K, F228Y
notes: Supernatant of construct 6D4 in the Octet assay; purified 16P4 elsewhere. scFv of CAR MB021; also called 6D4
B4: humanised anti-TnMUC1 scFv protein 13P16 (97A), L2-H3 (scFv)
scFv: B1 scFv with Y55F, I181M, A201V, L203I, V205A, R207K, F228Y
notes: Supernatant of construct 6D16 in the Octet assay; purified 13P16 elsewhere. scFv of CAR MB024; also called 6D16
B5: humanised anti-TnMUC1 scFv protein 11P12 (94A), L1-H5 (scFv)
scFv: B1 scFv with D1E, I2L
notes: Supernatant of construct 6D12 in the Octet assay; purified 11P12 elsewhere; also called 6D12
B6: humanised anti-TnMUC1 scFv protein 9P1 (88A), VL-VH humanised control (scFv)
scFv: B1 scFv with L110V, P147T, G177A, I181M, A201V, T209M, V226M, F228Y, T244M
notes: Control scFv designed from a humanised antibody of WO2015/159076 (10D2 is said to come from Ab2, so 10D1 by implication from Ab1); Neat supernatant of construct 10D1 in the Octet assay; purified protein 9P1 in Biacore and flow cytometry; also called 10D1
B7: humanised anti-TnMUC1 scFv protein 13P24 (77A), L3-H5 (scFv)
scFv: B1 scFv with D1E, I2L, Y55F
notes: Two purification lots (13P24, 28P24); also called 28P24; 6D24

Substitutions are numbered along the chain they refer to. “And” between values parts separate entries of the source, which are not always exact repeats. Identical values can stand only once.

The target of one experiment is T2, TnMUC1 peptide 1 (partially glycosylated), biotinylated.
T2 construct: also called 96-1; 32A
Nature of the experiment: SPR (Biacore T200): biotinylated TnMUC1 peptide 1 (96-1) captured on CAP chip, scFv as analyte, 1:1 fit, average. The protocol: (§1) Biotin CAPture Reagent was captured onto the active and reference flow cells for 300 seconds at 2 μl/min. The biotinylated peptides were diluted in BIAcore Running Buffer (as described above) and captured onto the active flow cell only, at a flow rate of 10 μl/min to obtain the capture level calculated in the equation detailed above.
(§2) The humanised anti-TnMUC1 scFv proteins were passed over the reference and active flow cells at 500, 125, 31.25, 7.8, 1.9, 0 nM for binding to TnMUC1 and MUC1 peptides with a 300 second association followed by a 900 seconds dissociation with BIAcore Running Buffer at a flow rate of 30 μl/min.
(§3) BIAcore T200 Evaluation Software v3.0 was used to analyse the data. The data obtained has been fitted to a 1:1 binding model with the Rmax parameter set to local. As this is a capture experiment, a local Rmax parameter would be truly reflective as the protein is recaptured every time and theoretically surface is slightly different at each recapture, possibly producing slightly different capture each time. Kinetic Parameters (KD, kd and kₐ) were calculated for all the humanised anti-TnMUC1 scFv proteins.
A general note: SPR reads the build-up and loss of mass on a sensor chip optically.
Regarding B1, binding was put at a Kd of 60.3 nM; the koff – broadly, the first-order rate constant of dissociation – is 0.00135 s⁻¹; the kon (usually the rate constant with which the complex forms) is 22500 M⁻¹ s⁻¹.

With B2, the Kd (in general, the equilibrium constant for the complex coming apart) stood at 51.1 nM and the koff stood at 0.00131 s⁻¹.

Regarding B3, binding was characterised by a dissociation constant (Kd) of 250 nM, the off-rate (koff) came to 0.00708 s⁻¹ and the kon amounted to 28500 M⁻¹ s⁻¹.

The molecule B4 returned a Kd of 231 nM, a koff of 0.00635 s⁻¹ and a kon of 27500 M⁻¹ s⁻¹.

The next experiment addresses T3, STnMUC1 peptide, biotinylated.
T3 construct: also called STn peptide; 35-1
Kind of experiment: SPR (Biacore T200), STnMUC1 peptide on CAP chip, scFv as analyte. The protocol: (§4) The CAP chip (from the Biotin CAPture kit) was docked into BIAcore T200 instrument to hydrate overnight, as per manufacturer instructions. When the chip is docked (for the first time or after storage), the surface of the sensor chip needs to be conditioned with 3×1 minute injections of Regeneration Solution (from the Biotin CAPture kit). Regeneration Solution was prepared by mixing 3 parts of Regeneration Stock 1 (8M Guanidine-HCl) with 1-part Regeneration Stock 2 (1M NaOH). Both the reference and active flow cells of the sensor chip were conditioned with 3×60 second injections of Regeneration Solution at a flow rate of 10 μl/min.
as §1
With B2, the “fold lower affinity than the murine 5E5 scFv protein” value is ~10 fold.

Regarding B5, the “fold lower affinity than the murine 5E5 scFv protein” value is ~10 fold.

B3: the “fold lower affinity than the murine 5E5 scFv protein” value was ~10 fold.

Turning to B4, the “fold lower affinity than the murine 5E5 scFv protein” value was ~10 fold.

For the next experiment the target is unchanged. Kind of experiment: SPR (Biacore T200): biotinylated STnMUC1 peptide (35-1) captured on CAP chip, scFv as analyte, 1:1 fit, average.
Regarding B1, the Kd was 199 nM, the koff was found to be 0.000435 s⁻¹ and the kon amounted to 2200 M⁻¹ s⁻¹.

Molecule B2 had a Kd of 196 nM, a koff of 0.000423 s⁻¹ and a kon of 2160 M⁻¹ s⁻¹.

As for B3, the Kd was found to be 536 nM, the koff is 0.00122 s⁻¹ and the kon was determined as 2290 M⁻¹ s⁻¹.

The molecule B4 had a Kd of 445 nM, a koff of 0.00117 s⁻¹ and a kon of 2630 M⁻¹ s⁻¹.

A further experiment addresses T4, TnMUC1 peptide (fully glycosylated), biotinylated.
T4 construct: Two batches (36-2 and 65-1) of the same peptide; also called 36-2; 7-36-2
Nature of the experiment: SPR (Biacore T200): biotinylated TnMUC1 peptide batch 65-1 captured on CAP chip, scFv as analyte.
With B4, the affinity, expressed as Kd, was 195 nM; the koff worked out at 0.00633 s⁻¹; the kon was determined as 32600 M⁻¹ s⁻¹.

Another experiment deals with T4, TnMUC1 peptide (fully glycosylated), …. Kind of experiment: SPR (Biacore T200): biotinylated TnMUC1 peptide batch 65-1 captured on CAP chip, scFv as analyte, 1:1 fit, average. The protocol:
as §1, §2, §3
B1 yielded a Kd of 48.6 nM, a koff of 0.00136 s⁻¹ and a kon of 28000 M⁻¹ s⁻¹.

For B2, binding was characterised by a dissociation constant (Kd) of 40.7 nM and the koff was determined as 0.00127 s⁻¹.

The molecule B3 gave a Kd of 208 nM, a koff of 0.00698 s⁻¹ and a kon of 33900 M⁻¹ s⁻¹.

B4 yielded a Kd of 195 nM, a koff of 0.00633 s⁻¹ and a kon of 32600 M⁻¹ s⁻¹.

The next experiment concerns the target T3, STnMUC1 peptide, biotinylated. Nature of the experiment: SPR (Biacore T200): biotinylated STnMUC1 peptide (35-1) captured on CAP chip, scFv as analyte. The protocol: as §4, §1
As to B4, the Kd worked out at 445 nM, the koff was 0.00117 s⁻¹ and the kon was 2630 M⁻¹ s⁻¹.

The target in the next experiment is T4, TnMUC1 peptide (fully glycosylated), …. Kind of experiment: SPR (Biacore T200), peptide 36-2 on CAP chip, scFv as analyte, 1:1 fit; single run. The protocol:
as §1, §2, §3
As for B1, the dissociation constant Kd is 25.7 nM and 27.6 nM; the koff is 0.00138 s⁻¹ and 0.00135 s⁻¹; the kon was 53800 M⁻¹ s⁻¹ and 49100 M⁻¹ s⁻¹.

As to B6, the Kd was 22.8 nM and 23.3 nM; the koff was 0.00157 s⁻¹ and 0.00153 s⁻¹; the kon is 68800 M⁻¹ s⁻¹ and 65900 M⁻¹ s⁻¹.

On to B2, for which the Kd is 67.6 nM and 74.2 nM; the koff was 0.00131 s⁻¹ and 0.00129 s⁻¹; the kon was 19400 M⁻¹ s⁻¹ and 17400 M⁻¹ s⁻¹.

As to B5, the Kd was 53.6 nM and 55.2 nM; the koff was 0.00158 s⁻¹ and 0.00151 s⁻¹; the kon is 29400 M⁻¹ s⁻¹ and 27300 M⁻¹ s⁻¹.

B7 had a Kd of 46.4 nM, a koff of 0.00133 s⁻¹ and a kon of 28700 M⁻¹ s⁻¹.

In the case of B3, the Kd was 195 nM and 197 nM; the koff was 0.00694 s⁻¹ and 0.0068 s⁻¹; the kon was 35600 M⁻¹ s⁻¹ and 34500 M⁻¹ s⁻¹.

Turning to B4, the dissociation constant (Kd) was 166 nM and 181 nM; the koff was 0.00654 s⁻¹ and 0.00652 s⁻¹; the kon is 39500 M⁻¹ s⁻¹ and 36100 M⁻¹ s⁻¹.

Another experiment has as its target T1, MUC1 peptide (non-glycosylated), …. Kind of experiment: SPR (Biacore T200): biotinylated peptide captured on CAP chip, scFv as analyte.
Take B4: the binding result is given as “no binding”.

The next experiment concerns the target T4, TnMUC1 peptide (fully glycosylated), …. Kind of experiment: SPR (Biacore T200), peptide 36-2 on CAP chip, scFv as analyte, 1:1 fit; average. The protocol: as §1, §2, §3
On to B1, for which the Kd is 26.7 nM, the koff stood at 0.00137 s⁻¹ and the kon turned out to be 51500 M⁻¹ s⁻¹.

In turn, B6 had a dissociation constant (Kd) of 23 nM, a koff of 0.00156 s⁻¹ and a kon of 67800 M⁻¹ s⁻¹.

B2 had a dissociation constant Kd of 70.9 nM, a koff of 0.0013 s⁻¹ and a kon of 18400 M⁻¹ s⁻¹.

As for B5, binding was characterised by a dissociation constant (Kd) of 54.4 nM, the koff was 0.00155 s⁻¹ and the kon stood at 28400 M⁻¹ s⁻¹.

B7 showed a Kd of 46.4 nM, a koff of 0.00133 s⁻¹ and a kon of 28700 M⁻¹ s⁻¹.

Regarding B3, binding was put at a Kd of 196 nM, the koff was 0.00687 s⁻¹ and the kon was 35100 M⁻¹ s⁻¹.

Consider B4, for which binding was characterised by a dissociation constant (Kd) of 174 nM, the koff came out at 0.00653 s⁻¹ and the kon was 37800 M⁻¹ s⁻¹.

The target is the same in the next experiment. Kind of experiment: SPR (Biacore T200), peptide 36-2 on CAP chip, scFv as analyte, 1:1 fit; average, restated in nM. The protocol: as §1, §2, §3
The molecule B1 displayed a Kd of 26.7 nM.

For B6, the affinity, expressed as Kd, was 23 nM.

Turning to B2, binding was characterised by a dissociation constant (Kd) of 70.9 nM.

The molecule B5 gave a Kd of 54 nM.

In turn, B7 displayed a Kd of 46.4 nM.

Molecule B3 displayed a Kd of 196 nM.

The molecule B4 displayed a Kd of 174 nM.

The next experiment has as its target T3, STnMUC1 peptide, biotinylated. Nature of the experiment: SPR (Biacore T200): biotinylated STnMUC1 peptide (35-1) captured on CAP chip, scFv as analyte. The source holds these as a separate data set.
As for B1, binding was characterised by a dissociation constant (Kd) of 199 nM.

The molecule B2 showed a Kd of 196 nM.

In the case of B3, the affinity, expressed as Kd, was 536 nM.

Consider B4, for which binding was put at a Kd of 445 nM.

Another experiment deals with T2, TnMUC1 peptide 1 (partially …). Kind of experiment: SPR (Biacore T200): biotinylated TnMUC1 peptide 1 (96-1) captured on CAP chip, scFv as analyte.
In the case of B4, the Kd worked out at 231 nM, the koff turned out to be 0.00635 s⁻¹ and the kon was determined as 27500 M⁻¹ s⁻¹.

The next experiment deals with T1, MUC1 peptide (non-glycosylated), …. Kind of experiment: SPR (Biacore T200), biotinylated peptide on CAP chip, scFv as analyte.
On to B1, for which the binding result is given as “no binding (tested: 500 nM)”.

B2: the binding result is on record as “no binding (tested: 500 nM)”.

In the case of B5, the binding result is recorded as “no binding (tested: 500 nM)”.

B7: the binding result is recorded as “no binding (tested: 500 nM)”.

B3: the binding result was “no binding (tested: 500 nM)”.

The target is the same in another experiment. Nature of the experiment: Octet BLI, biotinylated peptide on streptavidin sensors. The protocol:
Biotinylated MUC1 peptide (7-36-4) and TnMUC1 peptide (7-36-2) were diluted to 10 μg/ml in Octet Running Buffer (1×PBSF) and loaded onto Octet SA (streptavidin) sensors. The positive control proteins were tested in the Octet assay at a single concentration of 500 nM. All humanised anti-Tn MUC1 scFv expression supernatants were assayed neat.
Data was analysed using the data acquisition software fortéBIO version 8.0.2.5 and the data analysis software fortéBIO version 8.0.2.3.
Background: In BLI a coated tip is dipped into the sample, and binding shifts an interference pattern.
On to B6, for which the binding result is recorded as “no binding (tested: neat supernatant)”.
